Source: patent publication US20170342107A1

How the values were obtained:
[1] = molecular target: mouse melanocortin-4 receptor (mouse) (UniProt P56450); experiment: 125I-NDP-MSH competitive displacement, HEK293 cells stably expressing mMC4R; negative = more potent than control
[2] = molecular target: mouse melanocortin-3 receptor (mouse) (UniProt P33033); experiment: 125I-NDP-MSH competitive displacement, HEK293 cells stably expressing mMC3R
[3] = molecular target: mouse melanocortin-4 receptor (mouse) (UniProt P56450); experiment: 125I-NDP-MSH competitive displacement, HEK293 cells stably expressing mMC4R
[4] = molecular target: mouse melanocortin-3 receptor (mouse) (UniProt P33033); experiment: 125I-NDP-MSH competitive displacement, HEK293 cells stably expressing mMC3R; negative = more potent than control
[5] = molecular target: mouse melanocortin-4 receptor (mouse) (UniProt P56450); experiment: cell-based or functional assay
[6] = molecular target: mouse melanocortin-3 receptor (mouse) (UniProt P33033); experiment: cell-based or functional assay
[7] = molecular target: mouse melanocortin-4 receptor (mouse) (UniProt P56450); experiment: 125I-NDP-MSH competitive displacement, HEK293 cells stably expressing mMC4R; here negative = weaker binder than SKY4-48-1

mouse melanocortin-4 receptor (mouse), sequence (P56450 whole entry): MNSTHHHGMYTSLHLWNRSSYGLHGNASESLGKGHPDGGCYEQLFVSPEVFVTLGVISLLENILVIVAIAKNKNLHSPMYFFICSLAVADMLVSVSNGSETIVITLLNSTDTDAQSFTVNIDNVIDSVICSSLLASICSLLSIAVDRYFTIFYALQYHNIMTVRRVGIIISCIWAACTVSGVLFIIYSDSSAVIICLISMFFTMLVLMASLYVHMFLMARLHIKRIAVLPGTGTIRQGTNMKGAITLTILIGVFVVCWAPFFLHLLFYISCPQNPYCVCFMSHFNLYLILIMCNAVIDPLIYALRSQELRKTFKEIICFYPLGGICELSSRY
mouse melanocortin-3 receptor (mouse), sequence (P33033 whole entry): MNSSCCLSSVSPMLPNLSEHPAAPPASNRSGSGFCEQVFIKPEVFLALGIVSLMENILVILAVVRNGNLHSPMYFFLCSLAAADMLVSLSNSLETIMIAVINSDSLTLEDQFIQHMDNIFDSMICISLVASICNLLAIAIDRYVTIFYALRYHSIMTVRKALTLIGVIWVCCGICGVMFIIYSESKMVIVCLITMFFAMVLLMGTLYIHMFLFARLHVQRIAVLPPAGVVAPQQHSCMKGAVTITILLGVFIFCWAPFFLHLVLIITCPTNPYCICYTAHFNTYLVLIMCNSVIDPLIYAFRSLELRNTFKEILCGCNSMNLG

Row | Fold Diff. (IC50 against SKY4-48-1) [1] [fold] | IC50 [2] [nM] | IC50 [3] [nM] | Fold Diff. (IC50 against SKY4-48-1) [4] [fold] | Agonist Activity EC50 [5] [nM] | Antagonist Activity K [5] [nM] | Antagonist Ki [5] [nM] | Agonist Activity EC50 [6] [nM] | Fold Diff. (IC50 against SKY4-48-1) [2] [fold] | Fold Diff. (IC50 against SKY4-48-1) [7] [fold] | Agonist Activity, % stimulation relative to maximum [5] [% @ 100 µM] | Agonist, % of NDP-MSH maximal response [5] [% @ 100 µM] | pA2 (antagonist) [5] [pA2] | Antagonist Activity K [6] [nM] | pA2 (antagonist) [6] [pA2] | fold increase in agonist potency against SKY5-146-7 [6] [fold] | Substance
1 | -9 | 550 | 13 | -92 | > 100000 | 16 | 15 | 16 | – | – | – | – | – | – | – | – | SKY4-48-18, Ac-Arg-Arg-(pI)DPhe-Tic-NH2 (peptide)
2 | 1 | 2500 | 135 | -20 | – | – | – | – | – | – | – | – | – | – | – | – | SKY4-48-23, Ac-Phe-Arg-(pI)DPhe-Tic-NH2 (peptide)
3 | 2 | 440 | 220 | -115 | > 100000 | 400 | – | 57 | – | – | – | – | – | – | – | – | SKY4-48-42, Ac-Arg-Arg-(pI)DPhe-DNal(2')-NH2 (peptide)
4 | – | 800 | 6700 | – | – | – | > 3100 | > 100000 | 64 | -55 | 42 | 42 | 5.5 | 63 | 7.2 | – | SKY5-122-1, Ac-DTic-(pI)Phe-DArg-DHis-NH2 (peptide)
5 | 1 | 975 | 83 | -52 | > 100000 | 100 | – | 40 | – | – | – | – | 7 | – | – | 12 | SKY6-24-2, Ac-His-Arg-(pI)DPhe-Tic-NH2 (peptide)
6 | -3 | 420 | 43 | -120 | – | – | – | – | – | – | – | 32 | – | – | – | – | SKY6-24-3, Ac-DNal(2')-Arg-(pI)DPhe-Tic-NH2 (peptide)
